The target in the assay is E108D mutant of Thermoplasmatales archaeon SG8-52-1 heliorhodopsin (TaHeR) (Thermoplasmatales archaeon SG8-52-1). In words: crystal structure.

“E108D mutant of Thermoplasmatales archaeon SG8-52-1 heliorhodopsin (TaHeR) (natural protein)” gave a stoichiometry N of 2.

As a reminder, the stoichiometry N is the number of molecules, sites or subunits per partner or assembly.

These data come from doi:10.1101/2020.06.24.168591.
